Results reported in the supplement of paper PMC10567573.

B1: PTPRD (parent)
chain: FICQATGDPRPKIVWNKKGKKVSN

Variants of: B1
Assay: protein stability index of a GFP-peptide fusion (GPS, HEK-293T) (PSI 1-6); higher = more stable
Conditions: c terminus: a fixed tail appended
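Also: lentivirally expressed fusions sorted by FACS into six bins by GFP to DsRed ratio, PSI derived from sequencing read proportions per bin multiplied by bin number.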

Variant | protein stability index
I2W | 2.95
I2K | 3.47
I2R | 3.57
I2H | 1.55
I2V | 2.34
I2P | 3.89
I2Q | 2.83
I2Y | 3.01
I2C | 2.29
I2D | 4.73
I2M | 3.44
I2F | 3.85
I2T | 3.58
I2A | 2.67
I2G | 4.1
I2N | 4.27
I2E | 4.52
I2S | 3.75
I2L | 2.59
G7F | 2.69
G7E | 2.81
G7S | 2.02
G7T | 2.01
G7A | 2.15

Variant | protein stability index
G7D | 1.93
G7C | 1.87
G7M | 1.9
G7K | 2.39
G7V | 1.81
G7P | 2.32
G7L | 2.19
G7N | 1.97
G7H | 2.16
G7I | 2.01
G7R | 1.92
G7W | 3.96
G7Q | 2.22
G7Y | 1.7
R10M | 2.58
R10C | 1.84
R10I | 2.08
R10T | 2
R10Q | 2.06
R10L | 1.83
R10S | 1.81
R10D | 1.82
R10N | 1.83
R10F | 1.89

Variant | protein stability index
R10A | 1.98
R10H | 1.79
R10K | 2.95
R10P | 2.41
R10E | 1.61
R10V | 1.88
Q4R | 1.56
Q4Y | 1.37
Q4M | 1.29
Q4N | 2.03
Q4I | 1.84
Q4C | 1.8
Q4L | 2.17
Q4D | 1.87
Q4E | 2.18
Q4W | 2.95
Q4A | 1.61
Q4P | 2.14
Q4S | 1.58
Q4F | 2.25
Q4T | 3.05
Q4H | 2.33
Q4V | 2.08
Q4K | 2.42

Variant | protein stability index
Q4G | 1.88
F1L | 2.15
F1I | 2.35
F1H | 3.71
F1G | 4.53
F1W | 2.23
F1Q | 3.42
F1P | 3.76
F1A | 3.28
F1N | 3.89
F1Y | 2.26
F1C | 3.2
F1K | 3.12
F1V | 2.75
F1E | 3.2
F1D | 3.65
F1S | 3.3
F1M | 2.92
F1R | 3.66
F1T | 3.08
A5I | 1.77
A5M | 2.02
A5W | 2.35
A5L | 2.01

Variant | protein stability index
A5R | 2.24
A5D | 2.39
A5T | 2.08
A5H | 2.2
A5N | 2.09
A5P | 2.04
A5C | 2.12
A5Q | 1.95
A5F | 2.19
A5K | 3.03
A5G | 2.07
A5E | 1.92
A5Y | 2.25
A5S | 1.83
A5V | 2.26
K12I | 1.89
K12D | 1.18
K12M | 1.58
K12V | 1.61
K12E | 1.52
K12G | 2.28
K12A | 1.87
K12H | 1.86
K12R | 1.44

Variant | protein stability index
K12W | 1.6
K12L | 3.35
K12Y | 1.41
K12S | 2.17
K12T | 2.26
K12C | 1.9
K12Q | 1.94
K12N | 1.95
K12P | 1.96
P9H | 2.29
P9V | 2.27
P9F | 1.99
P9D | 2.14
P9G | 1.4
P9S | 2
P9M | 2.36
P9K | 1.54
P9W | 1.53
P9T | 1.88
P9L | 2.49
P9N | 2.31
P9E | 1.99
P9A | 1.84
P9C | 1.49

Variant | protein stability index
P9Y | 1.53
P9I | 2.21
P9Q | 1.83
I13F | 1.62
I13N | 1.88
I13R | 2.46
I13Q | 2.02
I13M | 1.51
I13K | 1.74
I13C | 1.99
I13S | 1.52
I13P | 1.75
I13L | 1.45
I13Y | 1.86
I13H | 1.74
I13G | 2.6
I13T | 1.73
I13V | 2.97
I13W | 1.87
I13E | 2.1
I13A | 1.83
V14E | 2.7
V14A | 2.23
